Tested on: murine inguinal white adipocytes
Test: Thermogenesis gene expression in murine inguinal adipocytes (q-PCR)
Assay type: cell-based, mouse
Settings: murine inguinal white adipocytes from stromal vascular fraction, treated 4 days
Method: FIG. 9. Exposure of recombinant RUCILP2 to human visceral white pre-adipocytes or murine inguinal white adipocytes causes up-regulation of the expression of genes involved in thermogenesis/browning. Upper panel: mRNA expression level of adipocyte differentiation marker genes including Ucp1, Pparγ1, Dio2, and Cox2 and brown adipocyte-selective genes including Cpt1b and Ebf2 on human white preadipocytes (HWP). Human white preadipocytes were cultured until 80% confluent and switched into differentiation media (with 0.3 ml/ml fetal calf serum, 8 ug/ml d-biotin, 0.5 ug/ml insulin, 400 ng/ml dexamethasone). The differentiation process to mature adipocytes was completed after 12-14 days. The treatment of RUCILP2 started from the third day of differentiation. Cells were harvested after 14 days of differentiation and the gene expressions were quantified by q-PCR. […] Statistical significance was determined by unpaired two-tailed Student's t test. *, p<0.05 vs 0 nM RUCILP2.
FIG. 28. […] Cells were harvested after 14 days of differentiation and the indicated genes were quantified by q-PCR. […] Cells were harvested after 6 days of differentiation and thermogenesis gene were quantified by q-PCR. […] Cells were harvested after 4 days of differentiation and expression of myogenesis genes were quantified by q-PCR. […] Statistical significance was determined by unpaired two-tailed Student's t test, *, p<0.05 […]

B1: RUCILP2: 87 amino acid irisin-like polypeptide cleaved from the Ruminococcus torques FNDC5-like protein RUMTOR_00181; recombinant, 6-His-tagged from E. coli (protein)
chain: APVDVKVSEITETSAKASWKNAADGKEAAGYNVYVDGVKLNKELLTEASCGLTNLKAETTYFVEVTAVDAAGNESVKSEKVTFKTLK
modifications: 6-His tag; Ruminococcus torques
notes: 87 amino acid irisin-like polypeptide cleaved from the Ruminococcus torques FNDC5-like protein RUMTOR_00181; recombinant, 6-His-tagged from E. coli
For B1, the “expression of genes involved in thermogenesis/browning” value was “up-regulation”.

From patent US20240336661A1, “PEPTIDES DERIVED FROM RUMINOCOCCUS TORQUES” (University of Copenhagen, priority 2021, published 2024)
